Data: paper PMC4069078

Assays:
[1] = molecular target: ChiAVD–G42A (chicken | not stated) (UniProt P56734); assay: dynamic light scattering; 50 mM NaH2PO4/Na2HPO4, 100 mM NaCl, pH 7 at 25°C; volume distribution
[2] = molecular target: ChiAVD–G42F (chicken | not stated) (UniProt P56734); assay: as above
[3] = molecular target: Chimeric avidin ChiAVD(I117Y) (chicken | not stated) (UniProt P02701); assay: as above
[4] = molecular target: Chimeric avidin ChiAVD(I117Y) (chicken | not stated) (UniProt P02701); assay: solution NMR structure; biotin-bound ChiAVD, 13C/15N-labelled, 58°C, 800 MHz; intersubunit NOE peaks identified by inspection of avidin crystal structures and manually assigned; RDCs in bicelles at 40°C

Substance: ChiAVD–G42A (from UniProt P56734 62-82; P02701 85-152)
- stoichiometry N [1]: 4

Substance: ChiAVD–G42F (from UniProt P56734 62-82; P02701 85-152)
- stoichiometry N [2]: 4

Substance: Chimeric avidin ChiAVD(I117Y) (from UniProt P02701 85-152)
- stoichiometry N [3]: 4
- stoichiometry N [4]: 4
